Measurements published in patent publication US20240150489A1 (ICHNOS SCIENCES, published 2024).
Blank lines part the entries; values can stand above or below the binder they belong to.

Tests used:
Human FcyRI [1] = biological target: T1, Human FcyRI (human, UniProt P12314 16-288, limits assumed); experiment: SPR; reference trastuzumab
T1 construct: also called FcγRIa

Human FcyRIIB [2] = biological target: T2, Human FcyRIIB (human, UniProt P31994 46-217, limits assumed); experiment: SPR; reference trastuzumab
T2 construct: also called FcγRIIb
T2 sequence (looked up): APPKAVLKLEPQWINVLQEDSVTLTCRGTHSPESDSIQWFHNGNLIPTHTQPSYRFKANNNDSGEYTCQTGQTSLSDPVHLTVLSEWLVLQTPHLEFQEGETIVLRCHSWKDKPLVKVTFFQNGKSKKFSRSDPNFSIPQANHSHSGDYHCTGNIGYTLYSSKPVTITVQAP

Human FcyRIIIA [3] = biological target: T3, Human FcyRIIIA (human, UniProt P08637 17-193, limits assumed); experiment: SPR; reference trastuzumab
T3 construct: also called FcγRIIIa

Human FcyRIIA [4] = biological target: T4, Human FcyRIIA (human, UniProt P12318 34-208, limits assumed); experiment: SPR; reference trastuzumab
T4 construct: also called FcγRIIa
T4 chain: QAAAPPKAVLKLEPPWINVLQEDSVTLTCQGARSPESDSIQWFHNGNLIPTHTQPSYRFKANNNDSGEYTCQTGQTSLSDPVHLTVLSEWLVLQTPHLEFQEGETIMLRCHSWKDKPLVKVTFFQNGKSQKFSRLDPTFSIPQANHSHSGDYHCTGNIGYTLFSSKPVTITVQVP

[5] = biological target: T5, CD38 on cells (Daudi, Raji, KMS-12-PE, NCI-H929, KMS-12-BM) (human, UniProt P28907); experiment: flow cytometry on NCI-H929 cells (carry CD38 and CD47), anti-human IgG-Fc PE, GeoMFI; apparent whole-cell value, the anti-CD47 arm also binds
T5 construct: full-length, cell surface; These cells also carry CD47

[6] = biological target: T6, human FcRn-ECD-Avi-His / B2M complex (human, UniProt P61769 21-119); experiment: SPR steady state, antibody captured with Human Fab Capture kit, FcRn analyte; reference trastuzumab control IgG1
T6 construct: B2M was cloned full length with its native leader; The alternative SPR method for BEAT CD38/CD47-60 says only 'FcRn' as analyte; the tie to the in-house complex is inferred; also called human FcRn/B2M complex

[7] = biological target: T5, CD38 on cells (Daudi, Raji, KMS-12-PE, …); experiment: flow cytometry on KMS-12-PE cells (carry CD38 and CD47), anti-human IgG-Fc PE, GeoMFI; apparent whole-cell value, the anti-CD47 arm also binds
[8] = biological target: T5, CD38 on cells (Daudi, Raji, KMS-12-PE, …); experiment: flow cytometry on Daudi cells (carry CD38 and CD47), anti-human IgG-Fc PE, GeoMFI; apparent whole-cell value, the anti-CD47 arm also binds
[9] = biological target: T5, CD38 on cells (Daudi, Raji, KMS-12-PE, …); experiment: flow cytometry on KMS-12-BM cells (carry CD38 and CD47), anti-human IgG-Fc PE, GeoMFI; apparent whole-cell value, the anti-CD47 arm also binds
[10] = biological target: T5, CD38 on cells (Daudi, Raji, KMS-12-PE, …); experiment: flow cytometry on Raji cells (carry CD38 and CD47), anti-human IgG-Fc PE, GeoMFI; apparent whole-cell value, the anti-CD47 arm also binds
Human FcyRI [11] = biological target: T1, Human FcyRI; experiment: SPR, antibody on Protein G chip, 1:1 binding model
Human FcyRIIB [12] = biological target: T2, Human FcyRIIB; experiment: SPR, antibody on Protein G chip, steady state
Human FcyRIIIA [13] = biological target: T3, Human FcyRIIIA; experiment: SPR, antibody on Protein G chip, steady state
Human FcyRIIA [14] = biological target: T4, Human FcyRIIA; experiment: SPR, antibody on Protein G chip, steady state
Human FcRn = biological target: T7, Human FcRn (human, UniProt P55899 24-297, limits assumed); experiment: SPR, antibody on Protein L chip, steady state, pH 6.0
T7 construct: Measured at pH 6.0; also called human FcRn receptor

[15] = biological target: T8, CD47 on cells (Daudi cells; human red blood cells) (human, UniProt Q08722 19-323); experiment: blocking of SIRPα-mIgG1 Fc binding to CD47 on Daudi cells, image-based readout with anti-mouse IgG Fc Alexa Fluor 647, % inhibition; the sheet calls the half-maximal value EC50
T8 construct: whole, on cells; These cells also carry CD38

[16] = biological target: Avi-Tagged FcγRIa (Acrobiosystems, FCA-H82E8) (UniProt P12314 16-288, biotinylated (captured with Biotin CAPture kit)); experiment: SPR, FcγRIa captured on CAP chip, antibody analyte; reference trastuzumab control IgG1
[17] = biological target: T9, Avi-Tagged FcRn (Acrobiosystems, FCM-H82W2) (human, UniProt P55899 24-297, biotinylated (captured with Biotin CAPture kit)); experiment: SPR steady state, FcRn captured on CAP chip, antibody analyte; reference trastuzumab control IgG1
T9 construct: also called human neonatal Fc receptor

human FcγR2b-ECD-His = biological target: T10, human FcγR2b-ECD-His (human, UniProt P31994 46-217); experiment: SPR steady state, antibody on protein G chip, receptor analyte; reference trastuzumab control IgG1
T10 construct: His-tagged fusion made in house (UniProt P31994); also called FcγRIIb; Fc-receptor IIb
T10 sequence: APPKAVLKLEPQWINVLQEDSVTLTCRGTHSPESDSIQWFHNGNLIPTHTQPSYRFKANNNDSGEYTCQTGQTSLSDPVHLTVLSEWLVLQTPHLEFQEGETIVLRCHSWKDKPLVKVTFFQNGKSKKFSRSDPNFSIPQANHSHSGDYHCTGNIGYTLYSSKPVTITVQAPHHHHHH

human FcγR2a-ECD-His = biological target: T11, human FcγR2a-ECD-His (human, UniProt P12318 34-208); experiment: as above
T11 construct: His-tagged fusion made in house (UniProt P12318); The SPR method names only 'Fc-receptors IIa, IIb, and IIIa'; also called FcγRIIa; Fc-receptor IIa
T11 chain: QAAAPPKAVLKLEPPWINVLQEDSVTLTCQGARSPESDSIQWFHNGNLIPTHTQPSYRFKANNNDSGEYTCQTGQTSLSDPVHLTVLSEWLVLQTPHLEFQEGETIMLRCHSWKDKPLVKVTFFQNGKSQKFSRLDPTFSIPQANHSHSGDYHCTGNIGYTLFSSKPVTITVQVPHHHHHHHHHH

human FcγR3a-ECD-His = biological target: T12, human FcγR3a-ECD-His (human, UniProt P08637 17-193); experiment: as above
T12 construct: His-tagged fusion made in house (UniProt P08637); also called FcγRIIIa; Fc-receptor IIIa

fold enhancement BEAT CD38/47-60 over trastuzumab (Human FcyRI [1]): 2.6 fold
fold enhancement BEAT CD38/47-60 over trastuzumab (Human FcyRIIB [2]): 6.7 fold
fold enhancement BEAT CD38/47-60 over trastuzumab (Human FcyRIIIA [3]): 5.6 fold
fold enhancement BEAT CD38/47-60 over trastuzumab (Human FcyRIIA [4]): 4.4 fold
EC50 (read off the curve) [5]: ~8 nM
KD ratio [BEAT/Control IgG1] [6]: 0.5 ratio
EC50 (read off the curve) [7]: ~3 nM
EC50 (read off the curve) [8]: ~4 nM
EC50 (read off the curve) [9]: ~30 nM
EC50 (read off the curve) [10]: ~4 nM
Kd (Human FcyRI [11]): 0.07 nM
Kd (Human FcyRIIB [12]): 306 nM
Kd (Human FcyRIIIA [13]): 15.1 nM
Kd (Human FcyRIIA [14]): 110 nM
Kd (Human FcRn): 418 nM
IC50 (read off the curve) [15]: ~0.03 nM
B1: BEAT CD38/CD47-60 (bispecific antibody, human IgG1, kappa)
heavy 1: EVQLVESGGGLIQPGGSLRLSCAASGFTLSRNTMHWVRQAPGKGLEWVSVIYQSGVTRYADSVKSRFTISRDNSKNTLYLQMNSLRAEDTAVYYCARGRYGVAGGPGYAFDVWGQGTLVTVSSASTKGPSVFPLAPSSKSTSGGTAALGCLVKDYFPEPVTVSWNSGALTSGVHTFPAVLQSSGLYSLSSVVTVPSSSLGTQTYICNVNHKPSNTKVDKKVEPKSCDKTHTCPPCPAPELLGGPDVFLFPPKPKDTLMISRTPEVTCVVVDVSHEDPEVKFNWYVDGVEVHNAKTKPREEQYNSTYRVVSVLTVLHQDWLNGKEYKCKVNNKALPAPEEKTISKAKGQPREPAVYTLPPSREEMTKNQVKLVCLVTGFYPSDIAVEWESSGQPENNYYTTPPMLDSDGSFSLVSWLNVDKSRWQQGNIFSCSVMHEALHNRFTQKSLSLSPG
heavy 2: not shown
light: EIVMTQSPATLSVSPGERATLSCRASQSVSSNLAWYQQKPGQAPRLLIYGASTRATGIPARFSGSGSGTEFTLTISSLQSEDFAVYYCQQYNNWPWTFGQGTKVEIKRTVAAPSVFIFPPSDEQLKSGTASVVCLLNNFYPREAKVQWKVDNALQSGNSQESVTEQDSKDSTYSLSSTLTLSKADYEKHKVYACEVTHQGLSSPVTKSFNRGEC
notes: 2+1 biparatopic format; BEAT (A): S239D + I332E + S324N, BEAT (B): S324N; also called BEAT CD38/47-60; BEAT 38/47-60

fold gain in affinity vs control [16]: 1030 fold
KD ratio [BEAT/Control IgG1] [17]: 0.4 ratio
fold gain in affinity vs control (human FcγR2b-ECD-His): 0.1 fold
fold gain in affinity vs control (human FcγR2a-ECD-His): 1 fold
fold gain in affinity vs control (human FcγR3a-ECD-His): 2 fold
B2: BEAT CD38/CD47-21 (bispecific antibody, human IgG1, kappa)
heavy 1: EVQLVESGGGLIQPGGSLRLSCAASGFTLSRNTMHWVRQAPGKGLEWVSVIYQSGVTRYADSVKSRFTISRDNSKNTLYLQMNSLRAEDTAVYYCARGRYGVAGGPGYAFDVWGQGTLVTVSSASTKGPSVFPLAPSSKSTSGGTAALGCLVKDYFPEPVTVSWNSGALTSGVHTFPAVLQSSGLYSLSSVVTVPSSSLGTQTYICNVNHKPSNTKVDKKVEPKSCDKTHTCPPCPAPELLGGPSVFLFPPKPKDTLMISRTPEVTCVVVDVSHEDPEVKFNWYVDGVEVHNAKTKPREEQYNSTYRVVSVLTVLHQDWLNGKEYKCKVNNKALPAPIEETISKAKGQPREPAVYTLPPSREEMTKNQVKLVCLVTGFYPSDIAVEWESSGQPENNYYTTPPMLDSDGSFSLVSWLNVDKSRWQQGNIFSCSVMHEALHNRFTQKSLSLSPG
heavy 2: QVQLVQSGAEVKKPGSSVKVSCKASGLPDATYAIGWVRQAPGQGLEWMGRIIPRLDAEHYAQKFQGRVTITADESTSTAYMELSSLRSEDTAVYYCARGLGYYLYSSYYFDIWGQGTLVTVSSASTKGPSVFPLAPSSKSTSGGTAALGCLVKDYFPEPVTVSWNSGALTSGVHTFPAVLQSSGLYSLSSVVTVPSSSLGTQTYICNVNHKPSNTKVDKKVEPKSCDKTHTCPPCPAPELLGGPSVFLFPPKPKDTLMISRTPEVTCVVVDVSHEDPEVKFNWYVDGVEVHNAKTKPREEQYNSTYRVVSVLTVLHQDWLNGKEYKCKVNNKALPAPIEETISKAKGQPREPEVATFPPSRDELTKNQVTLVCLVTGFYPSDIAVEWESNGQPENNYKTDPPLLESQGSFALSSRLRVDKSRWQQGNVFSCSVMHEALHNHYTQKSLSLSPG
light: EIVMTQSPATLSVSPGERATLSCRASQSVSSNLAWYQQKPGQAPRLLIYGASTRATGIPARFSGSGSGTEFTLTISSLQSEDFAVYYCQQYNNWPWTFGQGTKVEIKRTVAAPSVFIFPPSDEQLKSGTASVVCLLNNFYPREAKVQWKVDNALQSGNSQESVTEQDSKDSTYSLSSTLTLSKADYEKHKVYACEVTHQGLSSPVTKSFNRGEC
notes: 1+1 format; Fc mutations S324N + K334E in both heavy chains

fold gain in affinity vs control [16]: 3750 fold
KD ratio [BEAT/Control IgG1] [17]: 0.5 ratio
fold gain in affinity vs control (human FcγR2b-ECD-His): 14 fold
fold gain in affinity vs control (human FcγR2a-ECD-His): 6 fold
fold gain in affinity vs control (human FcγR3a-ECD-His): 11 fold
B3: BEAT CD38/CD47-42 (bispecific antibody, human IgG1, kappa)
heavy 1: EVQLVESGGGLIQPGGSLRLSCAASGFTLSRNTMHWVRQAPGKGLEWVSVIYQSGVTRYADSVKSRFTISRDNSKNTLYLQMNSLRAEDTAVYYCARGRYGVAGGPGYAFDVWGQGTLVTVSSASTKGPSVFPLAPSSKSTSGGTAALGCLVKDYFPEPVTVSWNSGALTSGVHTFPAVLQSSGLYSLSSVVTVPSSSLGTQTYICNVNHKPSNTKVDKKVEPKSCDKTHTCPPCPAPELLGGPDVFLFPPKPKDTLMISRTPEVTCVVVDVSHEDPEVKFNWYVDGVEVHNAKTKPREEQYNSTYRVVSVLTVLHQDWLNGKEYKCKVNNKALPAPEEKTISKAKGQPREPAVYTLPPSREEMTKNQVKLVCLVTGFYPSDIAVEWESSGQPENNYYTTPPMLDSDGSFSLVSWLNVDKSRWQQGNIFSCSVMHEALHNRFTQKSLSLSPG
heavy 2: QVQLVQSGAEVKKPGSSVKVSCKASGLPDATYAIGWVRQAPGQGLEWMGRIIPRLDAEHYAQKFQGRVTITADESTSTAYMELSSLRSEDTAVYYCARGLGYYLYSSYYFDIWGQGTLVTVSSASTKGPSVFPLAPSSKSTSGGTAALGCLVKDYFPEPVTVSWNSGALTSGVHTFPAVLQSSGLYSLSSVVTVPSSSLGTQTYICNVNHKPSNTKVDKKVEPKSCDKTHTCPPCPAPELLGGPSVFLFPPKPKDTLMISRTPEVTCVVVDVSHEDPEVKFNWYVDGVEVHNAKTKPREEQYNSTYRVVSVLTVLHQDWLNGKEYKCKVNNKALPAPIEKTISKAKGQPREPEVATFPPSRDELTKNQVTLVCLVTGFYPSDIAVEWESNGQPENNYKTDPPLLESQGSFALSSRLRVDKSRWQQGNVFSCSVMHEALHNHYTQKSLSLSPG
light: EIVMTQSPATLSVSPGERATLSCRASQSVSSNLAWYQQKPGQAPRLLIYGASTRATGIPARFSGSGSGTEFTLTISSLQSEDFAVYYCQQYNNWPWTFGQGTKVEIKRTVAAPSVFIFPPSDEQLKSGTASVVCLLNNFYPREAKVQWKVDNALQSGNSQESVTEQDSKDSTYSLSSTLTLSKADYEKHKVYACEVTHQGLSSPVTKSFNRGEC
notes: 1+1 format; BEAT (A): S239D + I332E + S324N, BEAT (B): S324N
